{"source": "paper PMC4117790", "about": "“HRAS is silenced by two neighboring G-quadruplexes and activated by MAZ, a zinc-finger transcription factor with DNA unfolding property”", "key": {"MAZ-GST [1]": {"target": "T1, MAZ-GST (UniProt P56270 1-477)", "T1 sequence": "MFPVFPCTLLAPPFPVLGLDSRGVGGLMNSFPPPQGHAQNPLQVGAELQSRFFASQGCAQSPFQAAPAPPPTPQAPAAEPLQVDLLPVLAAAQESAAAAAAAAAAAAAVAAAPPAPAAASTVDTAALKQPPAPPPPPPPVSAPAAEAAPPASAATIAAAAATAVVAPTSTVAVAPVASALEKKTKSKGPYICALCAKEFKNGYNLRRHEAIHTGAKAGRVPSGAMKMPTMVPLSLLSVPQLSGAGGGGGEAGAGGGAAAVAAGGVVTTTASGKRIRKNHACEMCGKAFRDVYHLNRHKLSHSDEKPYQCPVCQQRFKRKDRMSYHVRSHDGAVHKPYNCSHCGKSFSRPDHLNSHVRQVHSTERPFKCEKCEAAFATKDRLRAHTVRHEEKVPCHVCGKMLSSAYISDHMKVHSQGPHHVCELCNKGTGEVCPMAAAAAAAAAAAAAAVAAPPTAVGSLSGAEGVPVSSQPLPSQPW", "experiment": "double-filter binding; 100 mM KCl, 50 uM Zn acetate; Hill n = 1.6 ± 0.3; EMSA/filter: 20 mM Tris-HCl pH 8, 8% glycerol, 100 uM MgCl2, 50 uM Zn acetate, 1 mM DTT, 2.5 ng/ul poly dIdC, 1 mM Na3VO4, 5 mM NaF, KCl as stated (100 mM for filter binding); EMSA gel 20 C, filter 4 C 30 min; FRET: 50 mM Tris-HCl pH 7.4, 50 uM Zn acetate, 50 mM KCl, 37 C", "settings": "protein: recombinant; tags: GST; label: 32P; antiparallel intramolecular G4"}, "MAZ-GST [2]": {"target": "T1, MAZ-GST", "experiment": "double-filter binding; 100 mM KCl, 50 uM Zn acetate; Hill n = 1.4 ± 0.2; EMSA/filter: 20 mM Tris-HCl pH 8, 8% glycerol, 100 uM MgCl2, 50 uM Zn acetate, 1 mM DTT, 2.5 ng/ul poly dIdC, 1 mM Na3VO4, 5 mM NaF, KCl as stated (100 mM for filter binding); EMSA gel 20 C, filter 4 C 30 min; FRET: 50 mM Tris-HCl pH 7.4, 50 uM Zn acetate, 50 mM KCl, 37 C", "settings": "protein: recombinant; tags: GST; label: 32P; parallel intramolecular G4"}}, "data": [{"binder": "TCGGGTTGCGGGCGCAGGGCACGGGCG (structured_DNA)", "note": "[hras-1 quadruplex]", "values": [{"measurement": "Kd", "setting": "MAZ-GST [1]", "result": "504 ± 84", "unit": "nM"}]}, {"binder": "CGGGGCGGGGCGGGGGCGGGGGCG (structured_DNA)", "note": "[hras-2 quadruplex]", "values": [{"measurement": "Kd", "setting": "MAZ-GST [2]", "result": "207 ± 12", "unit": "nM"}]}]}
